Data as given in patent publication US20230235029A1 (INTEGRATED BIOTHERAPEUTICS, published 2023).
Substitutions are numbered along the chain they refer to.

T1: Marburg virus Musoke GP on rVSV pseudotype (VSV-MARV Musoke GP) (Marburg virus, Musoke strain, UniProt P35253 19-681)
T1 sequence: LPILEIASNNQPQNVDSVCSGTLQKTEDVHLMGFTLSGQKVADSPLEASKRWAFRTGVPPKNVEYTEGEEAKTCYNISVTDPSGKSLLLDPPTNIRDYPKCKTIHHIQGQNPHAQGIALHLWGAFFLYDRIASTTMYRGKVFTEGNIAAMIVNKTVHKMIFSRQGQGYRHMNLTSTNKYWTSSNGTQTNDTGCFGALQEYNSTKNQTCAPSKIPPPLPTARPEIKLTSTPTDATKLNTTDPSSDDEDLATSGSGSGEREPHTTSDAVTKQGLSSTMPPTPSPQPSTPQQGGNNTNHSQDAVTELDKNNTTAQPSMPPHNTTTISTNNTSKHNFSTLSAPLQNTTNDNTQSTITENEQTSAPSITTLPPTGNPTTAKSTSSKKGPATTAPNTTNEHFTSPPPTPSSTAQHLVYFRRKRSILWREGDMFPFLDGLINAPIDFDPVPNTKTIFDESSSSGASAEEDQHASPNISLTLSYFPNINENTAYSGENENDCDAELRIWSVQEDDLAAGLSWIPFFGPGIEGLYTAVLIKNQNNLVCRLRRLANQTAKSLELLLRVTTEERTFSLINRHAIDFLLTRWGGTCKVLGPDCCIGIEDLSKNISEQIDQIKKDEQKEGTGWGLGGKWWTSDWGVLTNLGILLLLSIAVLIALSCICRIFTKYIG

T2: RAVV GP on rVSV pseudotype (VSV-MARV RAVV GP) (Ravn virus, UniProt Q1PDC7 19-681)
T2 sequence: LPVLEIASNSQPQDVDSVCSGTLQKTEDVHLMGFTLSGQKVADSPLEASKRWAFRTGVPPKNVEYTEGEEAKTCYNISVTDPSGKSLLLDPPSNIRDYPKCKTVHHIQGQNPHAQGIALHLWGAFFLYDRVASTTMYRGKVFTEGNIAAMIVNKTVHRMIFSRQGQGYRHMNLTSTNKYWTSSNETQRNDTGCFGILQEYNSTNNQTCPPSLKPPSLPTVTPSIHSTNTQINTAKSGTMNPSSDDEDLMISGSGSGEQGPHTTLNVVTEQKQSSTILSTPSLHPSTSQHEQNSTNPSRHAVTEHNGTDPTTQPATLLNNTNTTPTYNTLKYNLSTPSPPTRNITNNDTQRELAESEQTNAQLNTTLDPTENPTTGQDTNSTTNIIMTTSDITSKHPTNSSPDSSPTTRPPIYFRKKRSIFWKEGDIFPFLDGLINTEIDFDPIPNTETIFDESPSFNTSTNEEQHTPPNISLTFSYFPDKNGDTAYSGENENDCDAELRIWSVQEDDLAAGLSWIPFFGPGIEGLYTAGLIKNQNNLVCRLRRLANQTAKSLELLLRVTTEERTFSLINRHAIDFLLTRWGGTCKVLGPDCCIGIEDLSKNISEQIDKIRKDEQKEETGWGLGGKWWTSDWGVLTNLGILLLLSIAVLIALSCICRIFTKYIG

T3: Marburg virus Angola GP on rVSV pseudotype (Marburg virus, Angola strain, UniProt Q1PD50 19-681)
T3 sequence: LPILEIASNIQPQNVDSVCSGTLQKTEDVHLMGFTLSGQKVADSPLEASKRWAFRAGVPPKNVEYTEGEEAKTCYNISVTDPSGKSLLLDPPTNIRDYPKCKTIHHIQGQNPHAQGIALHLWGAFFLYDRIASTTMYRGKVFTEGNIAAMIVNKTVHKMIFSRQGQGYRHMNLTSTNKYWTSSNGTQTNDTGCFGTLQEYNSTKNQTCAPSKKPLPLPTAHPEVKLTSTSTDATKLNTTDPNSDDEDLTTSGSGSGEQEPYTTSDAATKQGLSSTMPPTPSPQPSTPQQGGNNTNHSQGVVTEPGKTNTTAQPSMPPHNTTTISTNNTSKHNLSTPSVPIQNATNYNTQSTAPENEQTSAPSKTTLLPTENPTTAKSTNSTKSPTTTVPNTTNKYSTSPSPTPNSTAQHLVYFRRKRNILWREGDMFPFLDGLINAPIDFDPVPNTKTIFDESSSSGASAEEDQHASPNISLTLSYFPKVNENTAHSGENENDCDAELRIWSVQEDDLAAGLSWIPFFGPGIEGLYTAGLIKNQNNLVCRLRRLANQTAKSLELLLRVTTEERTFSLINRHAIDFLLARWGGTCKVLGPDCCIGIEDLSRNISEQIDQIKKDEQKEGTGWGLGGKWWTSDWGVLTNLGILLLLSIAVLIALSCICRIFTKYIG

B1: R50 (antibody, V domains shown)
VH: QVQLQESGPGLVKPSETLSLTCAVSGDSISSYWWNWIRQPPGKGLEWIGEIYGYSGSTNYNASLKSRVTISKDASKKQLSLKLSSVTAADTAVYYCARDPLNQDAFDFWGLGLRVTVSS
VL: QSALTQPPSVSGSPGQSVTISCTGTSSDIGGYTYVSWYQQHPGKAPKLMIYDVSRRPSGVSDRFSGSKSGNTASLTISGLQAEDEADYYCSSYAGRNALLFGGGTRLTVL
B2: R63 (antibody, V domains shown)
VH: QVQLQESGPGLVKASETLSLTCAVSGASISSYWWNWIRLSPGKGLEWIGEIYGYSGSTSYNSSLKSRVSISRDASKNQFSLKLSSVTAADTAVYYCARDPLNHDAFDFWGRGFRVTVSS
VL: B1 VL with T23A, S54N, R55E, R96S, N97K, A98T, L99V, L100S, T108S
B3: R55 (antibody, V domains shown)
VH: B1 VH with A62P
VL: B1 VL
B4: R83 (antibody, V domains shown)
VH: B1 VH with D27A, S31D, N59Y, A62P, K82R, S84T, V93I
VL: B1 VL with V35I, H41Y, R55K, I77V, A94G, N97K, A98T
B5: R53 (antibody, V domains shown)
VH: B1 VH with D27A, N59Y, N61S, A62P, K77N, L79F, V86A, A97V, L111Q
VL: B1 VL with G31S, T33D, I50M, R55K, S61F, E83D, D87A, Y89F, N97R, A98I
B6: R64 (antibody, V domains shown)
VH: B1 VH with D27A, I29M, S31D, T58S, N59Y, A62P, T69S
VL: QSALTQPPSVSGSPGLSVTISCTGSGSDIGGYDYVSWYQQHPGKAPKLMIYGVNKRPSGVSDRFSGSKSGNTASLSISGLQAEDEADYYCSSYAGSHTLLFGGGSRLTVL
B7: R18 (antibody, V domains shown)
VH: B2 VH with N61K, S84T, F113L
VL: B1 VL with T23A, S54N, R55E, K68I, R96S, N97K, A98T, L99V, T108S
B8: R45 (antibody, V domains shown)
VH: EVQLVESGGGLAKPGGSLRLSCAASGFTFGDHWMSWVRQAPGNGLQWISAIDRAGGSTFYADSVKGRFTISRENAKNTLYLQIDSLRPEDTAVYFCARDQGRTVGYLDYWGQGVLVTVSS
VL: QSALTQPRSVSGSPGQSVTISCTGTSSDIGSYTYVSWYRQHPGTAPKLIIYDVDERPSGVSYRFSGSKSGNTASLTISGLQAEDEADYYCSSYAGRNTWVFGGGTRLTVL
B9: R79 (antibody, V domains shown)
VH: EVQLVESGGGLAKPGGSLRLSCAASGFTFNDYWLFWVRQAPGRGLEWISTINRPGSSTFYADSVKGRFTISRENANNALYLQMDSLRPEDTAVYYCARDQGRTVGYLDYWGQGVLVTVSS
VL: B8 VL with T33S, R39Q, V53D, D54S, Y62D, R96S
B10: R80 (antibody, V domains shown)
VH: B9 VH
VL: B8 VL with T33S, R39Q, V53D, D54S, Y62D, R96S
B11: R13 (antibody, V domains shown)
VH: EVQLVESGAGLVQPGGSLRLSCAASGFTFSNSWMTWVRQAPGKGLEWLARIKRKADGETADYAASVKGRFTISRDDSKNTLYLQMNSLKTEDTAVYYCTTYNWNFNFDFWGQGVLVTVSS
VL: DIQMTQSPSSLSASVGDRVTITCRASQDISPYLNWYQQKPGKAPKLLIYYGNRLESGVPSRFSGSGSGTDLTLTISSLQPEDFATYYCQQYYRLPLTFGGGTKVETK
B12: R25 (antibody, V domains shown)
VH: B11 VH with L48V, A49G, F109H
VL: B11 VL with T106I
B13: R24 (antibody, V domains shown)
VH: B11 VH with A24G, S32T, L48V, N79S, F109Y
VL: B11 VL with T106S
B14: R15 (antibody, V domains shown)
VH: B11 VH with Q13R, S32T, K43R, N79H, Y82F, F109N
VL: B11 VL with D28A, I29F, P31S, G51A, G66E, D70E, L71F, T106I
B15: R29 (antibody, V domains shown)
VH: B11 VH with A23I, K43R, L48I, F109Y
VL: B11 VL with T106I
B16: R39 (antibody, V domains shown)
VH: B11 VH with A24G, S32T, L48V, F109Y
VL: B11 VL with T106I

Key:
[1] = target: Marburg virus Angola GP on rVSV pseudotype (Marburg virus, Angola strain) (UniProt Q1PD50)
[2] = target: Marburg virus Musoke GP on rVSV pseudotype (VSV-MARV Musoke GP) (Marburg virus, Musoke strain) (UniProt P35253)
[3] = target: RAVV GP on rVSV pseudotype (VSV-MARV RAVV GP) (Ravn virus) (UniProt Q1PDC7)
[4] = target: T1, Marburg virus Musoke GP on rVSV …; test: cell-based or functional assay
[5] = target: T2, RAVV GP on rVSV pseudotype (VSV-MARV …); test: cell-based or functional assay
[6] = target: T3, Marburg virus Angola GP on rVSV …; test: cell-based or functional assay

| Molecule | NT50 [1] | NT50 [2] | NT50 [3] | NT50 [4] | NT50 [5] | NT50 [6] |
| --- | --- | --- | --- | --- | --- | --- |
| MR191 (antibody) | 3.81 µg/mL | 2.77 µg/mL | 7 µg/mL | – | – | – |
| B1 | – | – | – | 0.06 µg/mL | 0.21 µg/mL | 0.05 µg/mL |
| B2 | – | – | – | 0.05 µg/mL | 0.17 µg/mL | 0.04 µg/mL |
| B3 | – | – | – | 0.07 µg/mL | 0.24 µg/mL | 0.07 µg/mL |
| B4 | – | – | – | 0.05 µg/mL | 0.17 µg/mL | 0.03 µg/mL |
| B5 | – | – | – | 0.02 µg/mL | 0.07 µg/mL | 0.02 µg/mL |
| B6 | – | – | – | 0.03 µg/mL | 0.09 µg/mL | 0.02 µg/mL |
| B7 | – | – | – | 0.09 µg/mL | 0.18 µg/mL | 0.04 µg/mL |
| B8 | – | – | – | 0.1 µg/mL | 0.27 µg/mL | 0.1 µg/mL |
| B9 | – | – | – | 0.17 µg/mL | 0.45 µg/mL | 0.21 µg/mL |
| B10 | – | – | – | 0.21 µg/mL | 0.3 µg/mL | 0.26 µg/mL |
| B11 | – | – | – | 0.03 µg/mL | 0.07 µg/mL | 0.03 µg/mL |
| B12 | – | – | – | 0.01 µg/mL | 0.04 µg/mL | 0.03 µg/mL |
| B13 | – | – | – | 0.03 µg/mL | 0.06 µg/mL | 0.04 µg/mL |
| B14 | – | – | – | 0.03 µg/mL | 0.08 µg/mL | 0.04 µg/mL |
| B15 | – | – | – | 0.02 µg/mL | 0.03 µg/mL | 0.02 µg/mL |
| B16 | – | – | – | 0.04 µg/mL | 0.07 µg/mL | 0.03 µg/mL |
